Laboratory results from US6518401B2, “Tumor necrosis factor stimulated gene 6 (TSG-6) protein” (New York University, priority 1991, dated 2003).
One block for each molecule: values may come before it.

Experiments:
[1] = target: T1, IαI purified from human serum (Homo sapiens, UniProt P02760+P19823); assay: TSG-6/IαI complex formation with purified proteins (SDS-PAGE, Western blot); assay type: binding; conditions: preincubated 16 hrs. at 37° C. with chondroitinase, then mixed with the untreated partner protein
T1 construct: IαI is a complex protein in which the bikunin chain is linked to HC1 and HC2; supposed to determine the cleavage site for the C-terminal propeptide; from tissue; host or cells: human serum
Protocol: Purified recombinant TSG-6 protein (lane 1) and IαI purified from human serum (lane 2) were mixed and incubated for 2 min. (lane 3), 5 min. (lane 4), 10 min. (lane 5), 15 min. (lane 6), 30 min. (lane 7), or for 60 min. (lane 8) at 37° C. or for 60 min. at 0° C. (lane 9). The reaction mixtures were then separated by SDS-PAGE and subjected to Western blot analysis with rabbit anti-TSG-6 serum.
Four micrograms of purified IαI and 3 μg of purified TSG-6 protein were incubated separately for 16 hrs. at 37° C. in the absence or presence of 30 milliunits of chondroitin sulfate ABC lyase. […]
Analysis of TSG-6 Binding to Carrier Protein. To determine the presence of TSG-6 binding protein, samples to be analyzed were mixed with an equal volume of TSG-6-containing serum-free supernatants of TN-5 B insect cells infected with recombinant Baculovirus and incubated at 37° C. for 30-60 min. (Purified TSG-6 protein was used in some experiments, as indicated.) Thereafter, the mixtures were analyzed for the presence of the 120-kDa complex by Western blotting with purified rabbit antibody to TSG-6 as described earlier (Wisniewski et al, J. Immunol. 151:6593-6601 (1993)). […]
Rapid Complex Formation between Recombinant TSG-6 Protein and IαI Purified from Human Serum at 37° C. The 120kDa TSG-6/IαI complex formed readily when purified TSG-6 protein and purified IαI were incubated together at 37° C. but not at 0° C. […]

TSG-6 mRNA = assay: Northern blot analysis of TSG mRNA levels in FS-4 cells; assay type: cell-based, human; conditions: growth arrested FS-4 cells, 2 h; TNF 20 ng/ml, CHX 10 ug/ml, IFN-β 500 U/ml, IFN-γ 100 U/ml, IL-1-α 1 ng/ml, EGF 25 ng/ml, TGF-β 2 ng/ml, poly(I).poly(C) 50 ug/ml, TPA 100 ng/ml, A23187 1 uM, forskolin 10 uM, dBcAMP 100 uM, IBMX 100 uM
Protocol: (§1) The human diploid FS-4 foreskin fibroblast cell line (Vilcek, J. et al, Proc. Natl. Acad. Sci. USA 70:3909-3913 (1973)) was used at passage level 15 in all experiments. FS-4 cells were grown in Eagle minimal essential medium (E-MEM) supplemented with 6 mM HEPES, 3 mM Tricine, 50 μg/ml gentamicin, and 5% heat inactivated (56° C., 30 min) fetal bovine serum (FBS; GIBCO Laboratories, Grand Island, N.Y.). For experiments, 4×10^6 cells were seeded in 175 cm^2 Falcon flasks, incubated at 37° C., and allowed to grow to confluence over 6 days. The confluent monolayers were washed once with phosphate buffered saline and replenished with E-MEM containing […] FBS. The cultures were incubated in this medium for another 72 h at 37° C. to let the cells become quiescent and then treated with the appropriate agents, as specified herein.
(§2) Cytoplasmic RNA was fractionated on a 1% agarose gel containing formaldehyde and blotted onto Zeta-probe blotting membranes (Bio-Rad Laboratories, Richmond, Calif.). Cytoplasmic RNA was loaded at 10 μg/lane. Prehybridization and hybridization of Northern blots were performed as described (Lin, J.-X. et al, supra). Filters were probed with 32P-labeled cDNA insert from recombinant M13 clones and/or with 32P-labeled internal reference pHe7 insert. Northern blots were quantified with a laser densitometer.
(§3) The increase in mRNA levels ranged from about 3-fold (TSG-21) to over 100-fold (TSG-6 and TSG-8).
(§4) Table 3 provides a summary of a large number of experiments in which levels of mRNAs corresponding to the 8 distinct TSG cDNAs were determined in FS-4 cells exposed to various agents by Northern blot analysis. Three of the mRNAs (corresponding to TSG-8, TSG-12 and TSG-14) were inducible by the protein synthesis inhibitor, cycloheximide (CHX). […] In contrast, induction of the remaining 3 mRNAs by TNF was inhibited or reduced in the presence of CHX. Five of the mRNAs were inducible by IFN-β, but only two of these responded to […]. Simultaneous treatment with IFN-β reduced inducibility of TSG-1 (=IL-8) mRNA by TNF, but increased the inducibility of TSG-6 and TSG-37 mRNAs. All mRNAs were inducible by IL-1 and by the doublestranded RNA poly(I)-poly(C) or the phorbol ester 12-O-tetradecanoyl phorbol 13-acetate (TPA), but the efficiency of induction by these agents varied. Epidermal growth factor (EGF) was moderately efficient in increasing TSG-21 (=collagenase) and TSG-27 (=stromelysin) mRNA levels, and weakly stimulated several other mRNAs. PDGF and transforming growth factor-β (TGF-β) were only weakly effective, as were dibutyryl cyclic AMP (dBcAMP) and the phosphodiesterase inhibitor, isobutyl methyl xanthine (IBMX).

TSG-37 (MT-II) mRNA = assay: as above; assay type: cell-based, human; conditions: growth arrested FS-4 cells, 2 h; TNF 20 ng/ml, CHX 10 ug/ml, IFN-β 500 U/ml, IFN-γ 100 U/ml, IL-1-α 1 ng/ml, EGF 25 ng/ml, TGF-β 2 ng/ml, poly(I).poly(C) 50 ug/ml, TPA 100 ng/ml, A23187 1 uM, forskolin 10 uM, dBcAMP 100 uM, IBMX 100 uM
Protocol: as §1, §2, §3, §4

[2] = tested on: TSG-21 (Collagenase) mRNA; assay: as above; assay type: cell-based, human; conditions: growth arrested FS-4 cells, 16 h of treatment; TNF 20 ng/ml, CHX 10 ug/ml, IFN-β 500 U/ml, IFN-γ 100 U/ml, IL-1-α 1 ng/ml, EGF 25 ng/ml, TGF-β 2 ng/ml, poly(I).poly(C) 50 ug/ml, TPA 100 ng/ml, forskolin 10 uM, IBMX 100 uM
Protocol: as §1, §2, §3, §4

[3] = tested on: TSG-27 (Stromelysin) mRNA; assay: as above; assay type: cell-based, human; conditions: growth arrested FS-4 cells, 16 h of treatment; TNF 20 ng/ml, CHX 10 ug/ml, IFN-β 500 U/ml, IFN-γ 100 U/ml, IL-1-α 1 ng/ml, EGF 25 ng/ml, TGF-β 2 ng/ml, poly(I).poly(C) 50 ug/ml, TPA 100 ng/ml, forskolin 10 uM, IBMX 100 uM
Protocol: as §1, §2, §3, §4

TSG-8 (MCAF) mRNA = assay: as above; assay type: cell-based, human; conditions: growth arrested FS-4 cells, 2 h; TNF 20 ng/ml, CHX 10 ug/ml, IFN-β 500 U/ml, IFN-γ 100 U/ml, IL-1-α 1 ng/ml, EGF 25 ng/ml, TGF-β 2 ng/ml, poly(I).poly(C) 50 ug/ml, TPA 100 ng/ml, A23187 1 uM, forskolin 10 uM, dBcAMP 100 uM, IBMX 100 uM
Protocol: as §1, §2, §3, §4

TSG-1 (IL-8) mRNA = assay: as above; assay type: cell-based, human; conditions: growth arrested FS-4 cells, 2 h; TNF 20 ng/ml, CHX 10 ug/ml, IFN-β 500 U/ml, IFN-γ 100 U/ml, IL-1-α 1 ng/ml, EGF 25 ng/ml, TGF-β 2 ng/ml, poly(I).poly(C) 50 ug/ml, TPA 100 ng/ml, A23187 1 uM, forskolin 10 uM, dBcAMP 100 uM, IBMX 100 uM
Protocol: as §1, §2, §3, §4

TSG-12 mRNA = assay: as above; assay type: cell-based, human; conditions: growth arrested FS-4 cells, 2 h; TNF 20 ng/ml, CHX 10 ug/ml, IFN-β 500 U/ml, IFN-γ 100 U/ml, IL-1-α 1 ng/ml, EGF 25 ng/ml, TGF-β 2 ng/ml, poly(I).poly(C) 50 ug/ml, TPA 100 ng/ml, A23187 1 uM, forskolin 10 uM, dBcAMP 100 uM, IBMX 100 uM
Protocol: as §1, §2, §3, §4

TSG-14 mRNA = assay: as above; assay type: cell-based, human; conditions: growth arrested FS-4 cells, 2 h; TNF 20 ng/ml, CHX 10 ug/ml, IFN-β 500 U/ml, IFN-γ 100 U/ml, IL-1-α 1 ng/ml, EGF 25 ng/ml, TGF-β 2 ng/ml, poly(I).poly(C) 50 ug/ml, TPA 100 ng/ml, A23187 1 uM, forskolin 10 uM, dBcAMP 100 uM, IBMX 100 uM
Protocol: as §1, §2, §3, §4

T1 sequence (P98066 18-277 partner, one chain of several): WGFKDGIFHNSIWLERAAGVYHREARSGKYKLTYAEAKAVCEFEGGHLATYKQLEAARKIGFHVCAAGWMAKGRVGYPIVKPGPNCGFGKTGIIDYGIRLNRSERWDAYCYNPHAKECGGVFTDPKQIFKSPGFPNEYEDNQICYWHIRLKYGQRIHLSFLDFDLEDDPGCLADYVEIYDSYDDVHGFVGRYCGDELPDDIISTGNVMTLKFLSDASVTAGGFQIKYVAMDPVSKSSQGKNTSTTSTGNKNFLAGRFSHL

ability to form the TSG-6/IαI complex after pretreatment of the protein with chondroitin sulfate ABC lyase [1]: no longer able to form a complex
B1: IαI: inter-α-inhibitor purified from human serum; the TSG-6 binding protein (protein)
chain 1: AVLPQEEEGSGGGQLVTEVTKKEDSCQLGYSAGPCMGMTSRYFYNGTSMACETFQYGGCMGNGNNFVTEKECLQTCRTVAACNLPIVRGPCRAFIQLWAFDAVKGKCVLFPYGGCQGNGNKFYSEKECREYCGVPGDGDEELLRFSN
chain 2: SLPGESEEMMEEVDQVTLYSYKVQSTITSRMATTMIQSKVVNNSPQPQNVVFDVQIPKGAFISNFSMTVDGKTFRSSIKEKTVGRALYAQARAKGKTAGLVRSSALDMENFRTEVNVLPGAKVQFELHYQEVKWRKLGSYEHRIYLQPGRLAKHLEVDVWVIEPQGLRFLHVPDTFEGHFDGVPVISKGQQKAHVSFKPTVAQQRICPNCRETAVDGELVVLYDVKREEKAGELEVFNGYFVHFFAPDNLDPIPKNILFVIDVSGSMWGVKMKQTVEAMKTILDDLRAEDHFSVIDFNQNIRTWRNDLISATKTQVADAKRYIEKIQPSGGTNINEALLRAIFILNEANNLGLLDPNSVSLIILVSDGDPTVGELKLSKIQKNVKENIQDNISLFSLGMGFDVDYDFLKRLSNENHGIAQRIYGNQDTSSQLKKFYNQVSTPLLRNVQFNYPHTSVTDVTQNNFHNYFGGSEIVVAGKFDPAKLDQIESVITATSANTQLVLETLAQMDDLQDFLSKDKHADPDFTRKLWAYLTINQLLAERSLAPTAAAKRRITRSILQMSLDHHIVTPLTSLVIENEAGDERMLADAPPQDPSCCSGALYYGSKVVPDSTPSWANPSPTPVISMLAQGSQVLESTPPPHVMRVEND
chain 3: SKSSEKRQAVDTAVDGVFIRSLKVNCKVTSRFAHYVVTSQVVNTANEAREVAFDLEIPKTAFISDFAVTADGNAFIGDIKDKVTAWKQYRKAAISGENAGLVRASGRTMEQFTIHLTVNPQSKVTFQLTYEEVLKRNHMQYEIVIKVKPKQLVHHFEIDVDIFEPQGISKLDAQASFLPKELAAQTIKKSFSGKKGHVLFRPTVSQQQSCPTCSTSLLNGHFKVTYDVSRDKICDLLVANNHFAHFFAPQNLTNMNKNVVFVIDISGSMRGQKVKQTKEALLKILGDMQPGDYFDLVLFGTRVQSWKGSLVQASEANLQAAQDFVRGFSLDEATNLNGGLLRGIEILNQVQESLPELSNHASILIMLTDGDPTEGVTDRSQILKNVRNAIRGRFPLYNLGFGHNVDFNFLEVMSMENNGRAQRIYEDHDATQQLQGFYSQVAKPLLVDVDLQYPQDAVLALTQNHHKQYYEGSEIVVAGRIADNKQSSFKADVQAHGEGQEFSITCLVDEEEMKKLLRERGHMLENHVERLWAYLTIQELLAKRMKVDREERANLSSQALQMSLDYGFVTPLTSMSIRGMADQDGLKPTIDKPSEDSPPLEMLGPRRTFVLSALQPSPTHSSSNTQRLPDRVTGVDTD

B2: IL-1: E. coli-derived recombinant human IL-1α (protein, UniProt P01583 113-271, looked up)
Interleukin-1 alpha: SAPFSFLSNVKYNFMRIIKYEFILNDALNQSIIRANDQYLTAAALHNLDEAVKFDMGAYKSSKDDAKITVILRISKTQLYVTAQDEDQPVLLKEMPEIPKTITGSETNLLFFWETHGTKNYFTSVAHPNLFIATKQDYWVCLAGGPPSITDFQILENQA
modifications: E. coli recombinant
notes: E. coli-derived recombinant human IL-1α
Relative Increase in mRNA Level TSG-6 (TSG-6 mRNA): +
Relative Increase in mRNA Level TSG-37 (MT-II) (TSG-37 (MT-II) mRNA): ++
Relative Increase in mRNA Level TSG-21 (Collagenase) [2]: ++
Relative Increase in mRNA Level TSG-27 (Stromelysin) [3]: ++
Relative Increase in mRNA Level TSG-8 (MCAF) (TSG-8 (MCAF) mRNA): ++
Relative Increase in mRNA Level TSG-1 (IL-8) (TSG-1 (IL-8) mRNA): +
Relative Increase in mRNA Level TSG-12 (TSG-12 mRNA): ++++
Relative Increase in mRNA Level TSG-14 (TSG-14 mRNA): ++++
